Results reported in patent US6177078A (Medvet Science Pty Limited, priority 1995, dated 2001).

How the values were obtained:
[1] = biological target: T1, IL-3R α and β chains (Homo sapiens, UniProt P26951); experiment: Competition for 125I-7G3 binding to COS cells expressing IL-3R α and β chains by IL-3 or GM-CSF; settings: COS cells transfected with IL-3Rα and β chain, preincubated, 1 nM 125I-7G3
T1 construct: expressed in transfected cells; host or cells: COS (monkey fibroblast) cells, transient co-transfection
T1 sequence (P26951 19-378): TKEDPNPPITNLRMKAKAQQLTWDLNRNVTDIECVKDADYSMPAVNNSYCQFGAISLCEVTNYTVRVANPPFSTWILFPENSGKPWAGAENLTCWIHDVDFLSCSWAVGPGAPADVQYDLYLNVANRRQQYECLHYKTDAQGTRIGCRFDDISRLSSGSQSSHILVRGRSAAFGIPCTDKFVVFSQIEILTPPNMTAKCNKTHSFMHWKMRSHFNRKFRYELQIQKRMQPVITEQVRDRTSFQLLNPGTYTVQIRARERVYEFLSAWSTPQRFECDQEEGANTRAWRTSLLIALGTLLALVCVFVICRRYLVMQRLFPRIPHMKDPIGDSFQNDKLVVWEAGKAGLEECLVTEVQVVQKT
Method: (§1) The binding curve was analysed by Scatchard transformation.^31 In competition binding experiments F6 cells or COS cells co-expressing IL-3R α and β chains were preincubated for 2 hours at 4° C. with a range of concentrations of IL-3 or GM-CSF before adding 1 nM of ^125 I-7G3 for a further 2 hours.

[2] = biological target: T2, IL-3Rα chain (Homo sapiens, UniProt P26951); experiment: Competition for 125I-7G3 binding to F6 cells by IL-3 or GM-CSF; settings: F6 cells expressing IL-3Rα chain alone, preincubated, 1 nM 125I-7G3
T2 construct: expressed in transfected cells
T2 sequence (P26951 19-378): T1 sequence (P26951 19-378)
Method: as §1

- inhibition of 125I-7G3 binding to the IL-3R [1]: not
- inhibition of 125I-7G3 binding to the IL-3R [2]: not
Substance: GM-CSF: GM-CSF, a gift from Genetics Institute
